Key:
[1] = target: T1, I211R mutant Kvβ2 expressed in complex with the T1 domain (rat, UniProt P62483 36-367, I211R); assay: pull-down
T1 sequence (looked up): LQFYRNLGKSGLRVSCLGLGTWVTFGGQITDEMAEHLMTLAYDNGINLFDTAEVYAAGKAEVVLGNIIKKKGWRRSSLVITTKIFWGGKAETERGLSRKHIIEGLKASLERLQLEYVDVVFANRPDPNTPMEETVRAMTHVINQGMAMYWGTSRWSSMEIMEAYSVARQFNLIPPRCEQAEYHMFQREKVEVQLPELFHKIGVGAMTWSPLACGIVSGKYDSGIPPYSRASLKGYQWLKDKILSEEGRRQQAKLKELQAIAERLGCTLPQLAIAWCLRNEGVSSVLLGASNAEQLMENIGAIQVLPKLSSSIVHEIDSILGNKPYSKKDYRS

[2] = target: the molecule itself; assay: crystal structure

B1: T1 domain of Kv1.1 (residues 2 to 135), fusion with N-terminal 6-histidine tag and SUMO protein (domain or fragment, rat, UniProt P10499 2-135, looked up)
chain: TVMSGENADEASAAPGHPQDGSYPRQADHDDHECCERVVINISGLRFETQLKTLAQFPNTLLGNPKKRMRYFDPLRNEYFFDRNRPSFDAILYYYQSGGRLRRPVNVPLDMFSEEIKFYELGEEAMEKFREDEG
B1: binds [1].

B2: Kvβ2 conserved core (residues 36 to 367), purified and co-crystallized with cortisone (domain or fragment, rat, UniProt P62483 36-367, looked up)
chain: LQFYRNLGKSGLRVSCLGLGTWVTFGGQITDEMAEHLMTLAYDNGINLFDTAEVYAAGKAEVVLGNIIKKKGWRRSSLVITTKIFWGGKAETERGLSRKHIIEGLKASLERLQLEYVDVVFANRPDPNTPMEETVRAMTHVINQGMAMYWGTSRWSSMEIMEAYSVARQFNLIPPICEQAEYHMFQREKVEVQLPELFHKIGVGAMTWSPLACGIVSGKYDSGIPPYSRASLKGYQWLKDKILSEEGRRQQAKLKELQAIAERLGCTLPQLAIAWCLRNEGVSSVLLGASNAEQLMENIGAIQVLPKLSSSIVHEIDSILGNKPYSKKDYRS
B2 was tested, and the “stoichiometry N” value [2] was 4.

B3: I211R mutant Kvβ2, co-crystallized with 2 mM cortisone (domain or fragment, rat, UniProt P62483 36-367, looked up)
chain: LQFYRNLGKSGLRVSCLGLGTWVTFGGQITDEMAEHLMTLAYDNGINLFDTAEVYAAGKAEVVLGNIIKKKGWRRSSLVITTKIFWGGKAETERGLSRKHIIEGLKASLERLQLEYVDVVFANRPDPNTPMEETVRAMTHVINQGMAMYWGTSRWSSMEIMEAYSVARQFNLIPPRCEQAEYHMFQREKVEVQLPELFHKIGVGAMTWSPLACGIVSGKYDSGIPPYSRASLKGYQWLKDKILSEEGRRQQAKLKELQAIAERLGCTLPQLAIAWCLRNEGVSSVLLGASNAEQLMENIGAIQVLPKLSSSIVHEIDSILGNKPYSKKDYRS
B3: binds [2].

B4: W121A mutant Kvβ2, co-crystallized with cortisone (domain or fragment, rat, UniProt P62483 36-367, looked up)
chain: LQFYRNLGKSGLRVSCLGLGTWVTFGGQITDEMAEHLMTLAYDNGINLFDTAEVYAAGKAEVVLGNIIKKKGWRRSSLVITTKIFAGGKAETERGLSRKHIIEGLKASLERLQLEYVDVVFANRPDPNTPMEETVRAMTHVINQGMAMYWGTSRWSSMEIMEAYSVARQFNLIPPICEQAEYHMFQREKVEVQLPELFHKIGVGAMTWSPLACGIVSGKYDSGIPPYSRASLKGYQWLKDKILSEEGRRQQAKLKELQAIAERLGCTLPQLAIAWCLRNEGVSSVLLGASNAEQLMENIGAIQVLPKLSSSIVHEIDSILGNKPYSKKDYRS
B4: binds [2].

— paper PMC2633621 (Nature chemical biology, 2008)
